Substitutions are numbered along the chain they refer to. Values belong to the binder of their own block, whether it stands above or below them.
What was measured:
[1] = biological target: T1, recombinant human PD-L1 fusion protein (human PD-L1 fused to an immunoglobulin Fc region) (human, UniProt Q9NZQ7 19-238); assay: Biacore equilibrium binding, 37 C
T1 construct: extracellular domain; also called PD-L1-Fc fusion protein; PD-L1-Ig; not shown: immunoglobulin Fc region

[2] = biological target: T2, cynomolgus monkey PD-L1 expressed on the surface of activated T cells (cynomolgus monkey, UniProt G7PSE7 19-290); assay: flow cytometry titration on activated cynomolgus PBMC, FITC anti-human kappa detection, FL1 GMFI
T2 construct: also called cynomolgus monkey cell surface PD-L1; stimulated cynomolgus PBMC
Experimental: (§1) Anti-PD-L1 antibodies were tested by flow cytometry for binding to activated human or cynomolgus monkey T cells expressing PD-L1 on their surface.
(§2) Human or monkey T cells were activated by anti-CD3 antibody to induce PD-L1 expression prior to binding with a human anti-PD-L1 monoclonal antibody. […] An isotype control antibody was used as a negative control. The cells were washed and binding was detected with a FITC-labeled antihuman Ig-kappa light chain Ab. Flow cytometric analyses were performed using a FACScalibur flow cytometer (Becton Dickinson, San Jose, Calif.).

[3] = biological target: T3, human PD-L1 expressed at the cell surface (human, UniProt Q9NZQ7 19-290); assay: flow cytometry titration on stimulated human CD4+ T cells, FITC anti-human kappa detection, FL1 GMFI
T3 construct: whole, on cells; also called cell surface PD-L1; hPD-L1
Experimental: as §1, §2

[4] = biological target: T3, human PD-L1 expressed at the cell …; assay: flow cytometry titration on IFN-gamma-treated ES-2 cells, anti-human kappa detection (sheet title), FL1 GMFI
[5] = biological target: T3, human PD-L1 expressed at the cell …; assay: flow cytometry blocking assay: antibody titrated on IFN-gamma-treated ES-2 cells, then PD-1-hFc at 2 ug/mL, detected with biotinylated 26D5 and streptavidin-PE (FL2 GMFI)
Experimental: The blocking was compared to isotype control antibody.
ES-2 cells were induced overnight with 500 IU/mL of hIFN-γ to upregulate hPD-L1 cell surface expression. Induced cells were suspended in FACS buffer. […] Finally, bound 26D5 antibody was detected by addition of streptavidin-PE conjugate at 4° C. for 30 minutes, followed by two washes to remove unbound conjugate. Flow cytometric analysis was performed using a FACScalibur flow cytometer (Becton Dickinson, San lose, Calif.). The results are depicted in FIG. 46.

[6] = biological target: T1, recombinant human PD-L1 fusion protein …; assay: ELISA on hPD-L1/Fc, HRP goat anti-human IgG (kappa chain-specific) detection
Experimental: Standard ELISA procedures were performed. The anti-PD-L1 human monoclonal antibodies were added at different concentrations. Goat-anti-human IgG (kappa chain-specific) polyclonal antibody conjugated with horseradish peroxidase (HRP) was used as secondary antibody.

[7] = biological target: T1, recombinant human PD-L1 fusion protein …; assay: SPR (Biacore), PD-L1 fusion protein amine-coupled to CM5 chip, antibody flowed at 133 nM, 1:1 Langmuir fit
Experimental: Anti-PD-L1 antibodies were characterized for affinities and binding kinetics by Biacore analysis (Biacore AB, Uppsala, Sweden). […] The antigen-antibody association kinetics was followed for 1 minute and the dissociation kinetics was followed for 1 minute. The association and dissociation curves were fit to a 1:1 Langmuir binding model using BIAevaluation software (Biacore AB). To minimize the effects of avidity in the estimation of the binding constants, only the initial segment of data corresponding to association and dissociation phases were used for fitting.

[8] = biological target: T3, human PD-L1 expressed at the cell …; assay: flow cytometry titration on CHO cells transfected with human PD-L1, FITC-labeled anti-human IgG detection
From the text: Chinese hamster ovary (CHO) cell lines that express recombinant human PD-L1 at the cell surface were developed and used to determine the specificity of PD-L1 human monoclonal antibodies by flow cytometry. CHO cells were transfected with expression plasmids containing full length cDNA encoding transmembrane forms of PD-L1. […] The cells were washed and binding was detected with a FITC-labeled anti-human IgG Ab. Flow cytometric analyses were preformed using a FACScan flow cytometry (Becton Dickinson, San Jose, Calif.). The binding was compared to the parent CHO cell line. […] Binding was also tested using varying concentrations of anti-PD-L1 antibody.

[9] = biological target: T1, recombinant human PD-L1 fusion protein …; assay: Biacore equilibrium binding, 25 C
[10] = biological target: T1, recombinant human PD-L1 fusion protein …; assay: flow cytometry blocking assay: antibody titrated against FITC-labeled PD-L1-Fc binding to CHO cells expressing human PD-1
Experimental: Anti-PD-L1 human monoclonal antibodies were tested for the ability to block binding of the ligand PD-L1 to PD-1 expressed on transfected CHO cells by using a cell cytometry assay.
PD-1 expressing CHO cells were suspended in FACS buffer (PBS with 4% fetal calf serum). […] Flow cytometric analyses were performed using a FACScalibur flow cytometer (Becton Dickinson, San Jose, Calif.).

T3 sequence (Q9NZQ7 19-290): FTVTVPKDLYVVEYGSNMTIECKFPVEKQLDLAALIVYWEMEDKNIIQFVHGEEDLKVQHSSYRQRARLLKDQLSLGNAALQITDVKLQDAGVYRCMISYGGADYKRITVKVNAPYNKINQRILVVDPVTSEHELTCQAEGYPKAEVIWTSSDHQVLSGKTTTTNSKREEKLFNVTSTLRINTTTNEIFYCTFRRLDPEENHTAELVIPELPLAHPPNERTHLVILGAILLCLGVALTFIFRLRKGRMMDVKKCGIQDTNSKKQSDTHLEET
T2 sequence (G7PSE7 entry or part of it limits assumed): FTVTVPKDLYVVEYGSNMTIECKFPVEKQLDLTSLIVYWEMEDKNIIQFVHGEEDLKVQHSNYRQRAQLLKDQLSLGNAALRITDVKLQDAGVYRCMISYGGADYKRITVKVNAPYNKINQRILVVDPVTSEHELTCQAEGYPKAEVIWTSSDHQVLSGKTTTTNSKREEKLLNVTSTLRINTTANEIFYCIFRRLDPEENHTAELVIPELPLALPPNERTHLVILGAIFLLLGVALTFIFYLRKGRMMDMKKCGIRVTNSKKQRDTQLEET
T1 sequence (Q9NZQ7 19-238): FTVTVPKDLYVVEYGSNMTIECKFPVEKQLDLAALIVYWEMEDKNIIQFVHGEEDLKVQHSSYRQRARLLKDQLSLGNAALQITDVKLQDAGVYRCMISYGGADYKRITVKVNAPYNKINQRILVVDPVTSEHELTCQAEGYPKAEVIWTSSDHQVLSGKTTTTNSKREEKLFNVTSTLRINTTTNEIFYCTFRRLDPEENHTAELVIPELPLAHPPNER

Kd [1]: 1.38 nM | EC50 [2]: 0.15 nM | EC50 [3]: 0.06 nM | EC50 [4]: 0.23 nM | IC50 [5]: 0.21 nM
B1: 1B12 human monoclonal antibody (antibody, V domains shown)
VH: QVQLVQSGAEVKKPGSSVKVSCKTSGDTFSSYAISWVRQAPGQGLEWMGGIIPIFGRAHYAQKFQGRVTITADESTSTAYMELSSLRSEDTAVYFCARKFHFVSGSPFGMDVWGQGTTVTVSS
VL: not shown
notes: Fully human IgG kappa antibody from a KM-mouse hybridoma

Kd [1]: 2.15 nM
B2: 7H1 human monoclonal antibody (antibody, V domains shown)
VH: B1 VH with D27G, R57K, S77T, F95Y, F100Y, H101D, F102Y
VL: not shown
notes: as for B1

EC50 [2]: 0.1 nM
B3: 12A4 human monoclonal antibody (antibody, V domains shown)
VH: B1 VH with S31T, R57K
VL: not shown
notes: Fully human IgG kappa antibody from a KM-mouse hybridoma; also called HuMAb 12A4

EC50 (read off the curve) [6]: ~0.1 µg/mL | EC50 [2]: 0.38 nM | Kd [7]: 3.39 nM | EC50 [3]: 0.23 nM | EC50 (read off the curve) [8]: ~0.3 µg/mL | EC50 [4]: 0.42 nM | IC50 [5]: 0.47 nM
B4: 3G10 human monoclonal antibody (antibody, V domains shown)
VH: QVQLVQSGAEVKKPGASVKVSCKASGYTFTDYGFSWVRQAPGQGLEWMGWITAYNGNTNYAQKLQGRVTMTTDTSTSTVYMELRSLRSDDTAVYYCARDYFYGMDVWGQGTTVTVSS
VL: EIVLTQSPATLSLSPGERATLSCRASQSVSSYLVWYQQKPGQAPRLLIYDASNRATGIPARFSGSGSGTDFTLTISSLEPEDFAVYYCQQRSNWPRTFGQGTKVEIK
notes: Fully human IgG kappa antibody from a KM-mouse hybridoma; also called HuMAb 3G10

Kd [9]: 0.57 nM | Kd [1]: 2.41 nM | EC50 (read off the curve) [6]: ~0.08 µg/mL | Kd [7]: 1.45 nM | koff [7]: 0.000372 s⁻¹ | kon [7]: 258000 M⁻¹ s⁻¹ | EC50 (read off the curve) [8]: ~0.3 µg/mL | EC50 [4]: 0.38 nM | IC50 (read off the curve) [10]: ~3 µg/mL | IC50 [5]: 0.29 nM
B5: 10A5 human monoclonal antibody (antibody, V domains shown)
VH: QVQLVQSGAEVKKPGASVKVSCKASGYTFTSYDVHWVRQAPGQRLEWMGWLHADTGITKFSQKFQGRVTITRDTSASTAYMELSSLRSEDTAVYYCARERIQLWFDYWGQGTLVTVSS
VL: DIQMTQSPSSLSASVGDRVTITCRASQGISSWLAWYQQKPEKAPKSLIYAASSLQSGVPSRFSGSGSGTDFTLTISSLQPEDFATYYCQQYNSYPYTFGQGTKLEIK
notes: Fully human IgG kappa antibody from a KM-mouse hybridoma; also called HuMAb 10A5

Kd [9]: 5.48 nM | Kd [1]: 5.93 nM
B6: 10H10 human monoclonal antibody (antibody, V domains shown)
VH: EVQLVESGGGLVQPGRSLRLSCAVSGFTFDDYVVHWVRQAPGKGLEWVSGISGNSGNIGYADSVKGRFTISRDNAKNSLYLQMNSLRAEDTALYYCAVPFDYWGQGTLVTVSS
VL: B5 VL
notes: as for B1

From patent US20160362495A1 (E R SQUIBB AND SONS L L C, published 2016)
